Fewer inactive variants are shown than the library holds.
B1: TPR 5TU (parent)
chain: GGAUCUUCUCGAUCUAACAAAAAAGACAAAUCUGCCACAAAGCUUGAGAGCAUCUUCGGAUGCAGAGGCGGCAGCCUUCGGUGGCGCGAUAGCGCCAACGUUCUCAACUAUGACACGCAAAACGCGUGCUCCGUUGAAUGGAGUUUAUCAUG

Variants of: B1
Assay: polymerase ribozyme fitness, log enrichment relative to wild type (log ratio); higher = more active; in vitro selection for triplet polymerase activity
How it was run: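 Mutant libraries of both subunits of a heterodimeric triplet polymerase ribozyme were PCR-built, transcribed, and selected once in triplicate, with frozen incubation at −7 °C and capture of gel-excised extended constructs on streptavidin beads before RT-PCR. Illumina sequencing of input and output libraries was filtered to genotypes with ≥10 input reads and ≥1 read per output. Fitness is the logarithm of genotype enrichment over wild-type enrichment, using inverse-variance-weighted replicate averages. The logarithm is base 2.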

Variant	polymerase ribozyme fitness (log ratio)
G124A U127C	-2.79
A106C U134C	0.274
C116A G141A	-2.34
A115G G140U	-3.41
C114U A142G	-2.95
G126A A150C	-4.16
C118U A147C	0.751
C118A U139G	-0.933
A119G G128C	-1.98
C116A G136A	1.97
G126A G140U	-3.43
U135A U148G	-3.41
U139A U146A	≤ -4.2
A113U U127C	-2.98
U144C A147G	-0.508
A142G	-0.833
A142C	-0.793
A142U	-0.482
G128A U146G	-4.16
G136A A142C	-0.134
C105U U130A C131G G140U	-3.96
C105U G143U	-2.41
A107G G117U	-4.04
A120U U148G	-3.59
G126A U135C	-1.38

Variant	polymerase ribozyme fitness (log ratio)
U109C C116U C131U A147U	-1.68
A115U G141U	-1.29
C99U	-0.26
U127G U145G	≤ -4.2
C103U G128A	-3.93
U134G U144G	-1.51
A122G	-0.303
A122C	-0.398
A122U	-0.218
A119G A120U	0.0433
C99U G140C	-3.43
C99U G140U	-3.37
U104G U145G	-0.945
C108G U144C	-4.13
A107U A120U C123A	-3.58
A119G G143A	1.13
A122C C125A G140A G143U	≤ -4.2
A106G A119C C125U	-0.389
U101C A106G	0.00894
C108U	-2.43
C103G U145C	-1.74
G128U U139C	-3.96
G100A U146C	-4.17
A137G G143C	-3.85
U145G	-0.131

Variant	polymerase ribozyme fitness (log ratio)
U145A	0.192
U145C	0.096
U104G C118G	-1.89
A106C G141U	0.961
A150G G152U	-3.43
A120G U127C	-2.22
A110G G117A U144A	-4.15
C103A A142U	-3.79
G128U G141A	-3.74
G126A G133C	-0.815
A110U A142U A150U	≤ -4.2
A121C U139G G140A U144G	-4.07
G117A G141C	-3.29
U127G G143A A147G	≤ -4.2
A106C C125G	-1.27
U144A A150U	-1.5
U127A U139G G152U	≤ -4.2
A119U U148A	-3.01
C123G G141C	-0.168
U130G U135C	-4.07
U102G U146G	-4.17
C116G A122G	-0.408
A142U U146G	-1.2
A122C C125A	-0.874
A120U	-0.233

Variant	polymerase ribozyme fitness (log ratio)
A120C	-0.331
A120G	0.00404
G136C A142C U146A	-2.66
U101A C131U	0.454
U109A	-1.11
U109C	-2.81
U109G	-0.578
G124U G141U	0.513
C105G C116U U145A	-0.747
C116G G143A	-2.16
U148C	-1.53
U148A	-2.72
U148G	-3.37
C116A U139A U148A	-4.12
C114G G133C	-3.93
C116A A142G	0.244
C105A A106G	-0.311
G133U G141C	-3.81
G133U G141U	-2.6
C118U U145G	-1.09
C114U A119U G143A	-3.89
A107G U144G	-3.59
C116U A120G	-0.0851
G126A G141U	-2.59
U146A U148A	-3.37

Variant	polymerase ribozyme fitness (log ratio)
U102G A121G	-2.33
C103U U134G G141C	-4.14
G128A U139G	-4.08
A137C U144A U146A	-3.95
C108U G141U	-3.1
C114G G141C U148A	≤ -4.2
A107U G133C	-3.72
A120G U134G U148G	-3.72
A106G C116U U139A	≤ -4.2
C99G G152A	-2.39
C103A A120U G124A C125U	-2.03
U102G U111G	≤ -4.2
U101G U145G	-0.0241
A121U U135A	-0.658
A106C U109G	-0.424
A121G U148A	-3.78
C114G G143A	≤ -4.2
C116A C123U C125U	-3.41
G126A C149G	-3.13
U102G U144C	-3.06
A120C G152A	-2.33
A119C G133C	-1.83
C105U C116U G133U A142C C149U	-4.08
A122U G136U	-2.24
A113G A122U G136A U148A	-3.76
